We go through 52 molecules from article PMC4072508, “Genome-Wide Prediction and Validation of Peptides That Bind Human Prosurvival Bcl-2 Proteins” (PLoS Computational Biology, 2014).

In the experiment the target is Bcl-xL, Q07817. Description: peptide SPOT array, c-Myc-tagged receptor at 1 uM or 100 nM, anti-c-Myc-Cy3.
Sequence of Bcl-xL, Q07817 (Q07817 1-209): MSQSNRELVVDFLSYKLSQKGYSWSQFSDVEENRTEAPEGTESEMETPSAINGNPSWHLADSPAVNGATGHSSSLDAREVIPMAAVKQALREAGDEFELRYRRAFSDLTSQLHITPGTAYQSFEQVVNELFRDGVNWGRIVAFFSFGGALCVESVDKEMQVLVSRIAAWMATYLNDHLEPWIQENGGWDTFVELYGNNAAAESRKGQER

AYRGRGIAKHDAKAALDFVVEEDLKA had an SPOT signal as a fraction of Bim BH3's signal on the same receptor and array of 0.21. RRRLLLASKELHQVAHDLDDELAWVQ [SPTBN4]: the SPOT signal as a fraction of Bim BH3's signal on the same receptor and array was found to be 0.06. In turn, EVDVGKLVSRLQDGGTKITPKATNGP [OPHN1] showed an SPOT signal as a fraction of Bim BH3's signal on the same receptor and array of 0.02. As to TREAQKMAQLLVVLGKIINMKIKLFM [UGGT2], the SPOT signal as a fraction of Bim BH3's signal on the same receptor and array was found to be 0.1. To NESLTDTARVLSSMADAVLARVYKQS [OTC] belongs 0.03.

With CLSCDLCGCRDGEVGRRLYYKLGRKL [LMO2], the SPOT signal as a fraction of Bim BH3's signal on the same receptor and array stood at 1.08. Regarding AYRGRGIAKHLAKALLDFVVEEDLKA, the SPOT signal as a fraction of Bim BH3's signal on the same receptor and array was determined as 0.17. Take RYPILENPEIDRKTADDFLNRIALTD [CCNH]: the SPOT signal as a fraction of Bim BH3's signal on the same receptor and array turned out to be 0.02. On to DTIFHRAAVRDRDLGGAILRHARRQA [BRPF3], for which the SPOT signal as a fraction of Bim BH3's signal on the same receptor and array was found to be 1.5.

Consider LREVRESIRFDRQVGRDWVQRRREAL [CYP46A1], for which the SPOT signal as a fraction of Bim BH3's signal on the same receptor and array came to 1.14. As to RTNNYQLSDELRKNLVELTSLRQKVA [GRIPAP1], the SPOT signal as a fraction of Bim BH3's signal on the same receptor and array was found to be 0.52. Molecule PKIYEGAARKLNVSSDTVQHGVEGLT [COMMD2] displayed an SPOT signal as a fraction of Bim BH3's signal on the same receptor and array of 0.03. For NVGCQQDSEELLKLATSISETLEEKP [UBA6] the value was 0.02; for PHQFDGVPDKDIQAAYQVKYNSKKMK [EVI5], 0.58. Regarding EVNMSLSGRYLEELSQRYRKQMEEMQ [C1orf9], the SPOT signal as a fraction of Bim BH3's signal on the same receptor and array stood at 0.03.

With FEKLRMIAKEIRHVLRMASVNMDPAL, the SPOT signal as a fraction of Bim BH3's signal on the same receptor and array came to 0.09. For SSLSDGLPVHLANILDELTQKKKMFK [AGBL2] the value was 0.1; for GAQHSTMTSTDRRLGEDIFKGVVTKG [CCDC138], 0.03; for VYILRKAARRLAQVSRAAGVRVGLLS [CACNA1G], 0.76. For KTALEKYHDGIEKAAEDSYAKIDEKT [NUF2], the SPOT signal as a fraction of Bim BH3's signal on the same receptor and array was 0.02. As to PFDCRDYAVVDRKYADKIYSISMKHP [FOLH1], the SPOT signal as a fraction of Bim BH3's signal on the same receptor and array worked out at 0.45. Turning to REEIRKVVQSLEQTAREILTLLQGVH [TSN], the SPOT signal as a fraction of Bim BH3's signal on the same receptor and array was determined as 0.04. To GKDHPDVAKQLNNLALLCQNQGKYEE [KLC1] belongs 0.02; to KFELEQNIKELNTLADQVDTTHELLT [APOL5], 0.02; to GELAQVSGLEMRKWLDELFIIIMDML, 0.02. To TCRISESVKKLMELAYQTLLEATTSS [ZW10] belongs 0.04; to LHQAKDFGNYLFNFASAATKKITESV [SYAP1], 0.21. SQDFSELSTQLTGVARDLQEEMLPGS [MON1A] had an SPOT signal as a fraction of Bim BH3's signal on the same receptor and array of 0.03. To KAIFDRLCKQLEKIGQQVDREPGDVA [ORC6L] belongs 0.04; to DFMGRTFAKPLVKMLDEAYCPPRFPP [OTOF], 0.17; to MGVLAAAARCDVRGADRMSKWTSKRG [MRPL41], 0.56. Regarding FQEAKQFGQKLQDLAEHSDPEVRDKV [ARMCX5], the SPOT signal as a fraction of Bim BH3's signal on the same receptor and array turned out to be 0.02. QEELQDWVKKIREVAQTADARLTEGK [PLCG1] came in with an SPOT signal as a fraction of Bim BH3's signal on the same receptor and array of 0.03.

IKKSVTKGEMDKIVGKRFREHFPEIL [MAGEB2] displayed an SPOT signal as a fraction of Bim BH3's signal on the same receptor and array of 0.4.

In turn, LHNLVKAAQSLDEMSQTITDLLSEQK [RB1CC1] displayed an SPOT signal as a fraction of Bim BH3's signal on the same receptor and array of 0.03. With HSEITPYATDLAQTSEKLIPHLHKLP [CCDC129], the SPOT signal as a fraction of Bim BH3's signal on the same receptor and array stood at 0.02. Turning to PFGLQGNSEYLIEFSRNLGKSSEHLL [CGNL1], the SPOT signal as a fraction of Bim BH3's signal on the same receptor and array was determined as 0.03. As for RAELTGLARRLADRARELQETNLRAV [RIMBP3C], the SPOT signal as a fraction of Bim BH3's signal on the same receptor and array came out at 0.22. The molecule FEKLRMIAKEDRHVGRMASVNMDPAL registered an SPOT signal as a fraction of Bim BH3's signal on the same receptor and array of 0.13. Take TCELGEFVKNIDQVSSEVLEGWPDSY [TLR1]: the SPOT signal as a fraction of Bim BH3's signal on the same receptor and array is 0.02. In turn, NPIGLYSAETLREMAQMYQMSLRGKA [LDB3] yielded an SPOT signal as a fraction of Bim BH3's signal on the same receptor and array of 0.3. As to GELAQVSGLEDRKWVDELFIIIMDML, the SPOT signal as a fraction of Bim BH3's signal on the same receptor and array amounted to 0.02. Regarding VIKQRRLPDQLSKLLDRIQLSGRYYL, the SPOT signal as a fraction of Bim BH3's signal on the same receptor and array came out at 0.84. To AHKARALARLDRQTALAAFSDFKRLQ [FAM43B] belongs 1.22; to DNHKKKTVKMDEYLGKDVLHGVFNYL [CASP5], 0.11.

LRQMQECAKRIAKVSAEAKLEIDEET [SKIV2L2] registered an SPOT signal as a fraction of Bim BH3's signal on the same receptor and array of 0.03. To DISALTASNLLKKYLEKYSGILEGPV [FIGN] belongs 0.13.

In turn, GFQVLNAIENLDDNAQRYDLDGLEKA [C9orf167] registered an SPOT signal as a fraction of Bim BH3's signal on the same receptor and array of 0.03. For the molecule EARVLEEASRLEEEAQQTRLQLQQRL [EVC], the SPOT signal as a fraction of Bim BH3's signal on the same receptor and array came to 0.02. Take KYDPSKYCHNLKKILEDFSNTIPISS [NOL8]: the SPOT signal as a fraction of Bim BH3's signal on the same receptor and array worked out at 0.28. With NRKGEKNGKGLRHFLMKVCEKVQRKG [TFDP1], the SPOT signal as a fraction of Bim BH3's signal on the same receptor and array amounted to 0.42. Turning to LQIIPTLCHLLRALSDDGVSDLEDPT [DFNA5], the SPOT signal as a fraction of Bim BH3's signal on the same receptor and array was found to be 0.03.
